Consider six molecules from doi:10.1101/2025.08.01.667454 (bioRxiv, 2025).

To fix the notation:
B1: BAF60A^YLD+SWIB (BAF60A residues 144-407) (domain or fragment, human, UniProt Q96GM5 144-407, looked up)
chain: SQAYMDLLAFERKLDQTIMRKRLDIQEALKRPIKQKRKLRIFISNTFNPAKSDAEDGEGTVASWELRVEGRLLEDSALSKYDATKQKRKFSSFFKSLVIELDKDLYGPDNHLVEWHRTATTQETDGFQVKRPGDVNVRCTVLLMLDYQPPQFKLDPRLARLLGIHTQTRPVIIQALWQYIKTHKLQDPHEREFVICDKYLQQIFESQRMKFSEIPQRLHALLMPPEPIIINHVISVDPNDQKKTACYDIDVEVDDTLKTQMNSF

Test [1] concerns the target MBP-tagged full-length PU.1 (human, UniProt P17947 1-270). Put plainly: ITC. A general note: In ITC the heat of successive injections is recorded.
The next test concerns the target PU.1[61–270] (human, UniProt P17947 61-270). Put plainly: ITC.
The next test has as its target PU.1^FL S75A (human, UniProt P17947 1-270, S75A). Put plainly: fluorescence polarisation. Background: Polarisation of emitted light reports the rotation of a fluorescent probe.
Test [2] deals with B1. Kind of test: ITC.
Test [3] has as its target B1. Put plainly: fluorescence polarisation.
The target of test [4] is B1. Put plainly: fluorescence polarisation. This is another data set of the same source.

In general, Kd refers to the equilibrium constant for the complex coming apart. One may read the stoichiometry N as a count of units in the complex or per binding partner. With B1, in test [1], the Kd came to 1.26 µM and the “stoichiometry N” value worked out at 1. Moreover, the Kd with PU.1[61–270] turned out to be 3.23 µM. The binding result with PU.1^FL S75A is reported as “binds”.
Molecule SEFESFAENNFTELQSVQPPQLQQLYRHMELEQMHVLDTPM (peptide, UniProt P17947 60-100, looked up) [PU.1[60–100]] registered a Kd in test [2] of 1.25 µM.
Consider CEFESFAENNFTELQSVQPPQLQQLYRHMELEQMHVLDTPM (peptide, UniProt P17947 60-100, looked up) [PU.1^60C-100], for which the binding result in test [3] is on record as “binds”.
For the molecule CEFESFAENNFTELQSVQPPQLQQLYRHMELEQMHVLDTPM (peptide, UniProt P17947 60-100, looked up, BODIPY TMR C5 maleimide on the cysteine introduced at position 60) [PU.1[60–100]^TMR], in test [4], the Kd was 0.92 µM.
As a reminder, the IC50 is the concentration that inhibits the measured activity by half. The low end stands for greater potency in that assay, the high end for weaker potency in that assay. For the molecule FTELQSVQPPQLQQLYRHMELEQMHVLDTPM (peptide, UniProt P17947 70-100, looked up) [PU.1[70–100]], binding in test [2] was put at a Kd of 2.57 µM. Besides, the half-inhibitory concentration (IC50) in test [3] stood at 2.37 µM.

B2: PU.1[1–117] (domain or fragment, human, UniProt P17947 1-117, looked up)
chain: MLQACKMEGFPLVPPPSEDLVPYDTDLYQRQTHEYYPYLSSDGESHSDHYWDFHPHHVHSEFESFAENNFTELQSVQPPQLQQLYRHMELEQMHVLDTPMVPPHPSLGHQVSYLPRM
For the molecule B2, the Kd in test [2] was determined as 2.8 µM.
